In publication PMC6920769, “Knockout of Arabidopsis Serotonin N-Acetyltransferase-2 Reduces Melatonin Levels and Delays Flowering” (Biomolecules, 2019):

Legend:
[1] = molecular target: T1, AtSNAT1 (Arabidopsis thaliana, UniProt Q7X9V3); test: HPLC of N-acetylserotonin formed; assay type: biochemical; conditions: serotonin 0.5 mM
T1 construct: gene NSI

[2] = substrate: COc1ccc2[nH]cc(CCN)c2c1; test: HPLC of melatonin formed, Lineweaver-Burk; assay type: biochemical, Arabidopsis thaliana; conditions: acetyl-CoA 0.5 mM, 100 mM potassium phosphate pH 7.8, 45 °C
[3] = substrate: NCCc1c[nH]c2ccc(O)cc12; test: HPLC of N-acetylserotonin formed, Lineweaver-Burk; assay type: biochemical, Arabidopsis thaliana; conditions: acetyl-CoA 0.5 mM, 100 mM potassium phosphate pH 7.8, 45 °C, printed as Km for NAS (synthesis)

T1 sequence (Q7X9V3 59-258): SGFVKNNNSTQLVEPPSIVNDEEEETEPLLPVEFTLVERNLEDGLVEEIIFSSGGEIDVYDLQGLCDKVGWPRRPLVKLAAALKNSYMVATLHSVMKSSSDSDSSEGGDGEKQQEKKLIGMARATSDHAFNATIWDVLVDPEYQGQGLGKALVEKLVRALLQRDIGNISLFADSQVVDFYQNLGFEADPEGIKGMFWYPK

## NCCc1c[nH]c2ccc(O)cc12 [serotonin]
[1]
  HPLC of N-acetylserotonin formed: Melatonin-mediated inhibition of NAS synthesis by recombinant AtSNAT1

B1: AtSNAT2 (Arabidopsis thaliana) (protein)
chain: MFLGGTISTPPASLRLRSTLNPQNAVTQSSSQATFPAAMQRKPPSYSISDEDLESRGFLLRRTTEGLNLDQLNSVFAAVGFPRRDTAKIEVALQHTDALLWVEYEKTRRPVAFARATGDGVFNAIIWDVVVDPSFQSCGLGKAVMERLIEDLQVKGICNIALYSEPRVLGFYRPLGFVSDPDGIKGMVFIRKQRNKK
notes: kinetics text says recombinant AtSNAT2 (not the truncated form)
[2]
  Km: 630 µM
[3]
  Km: 232 µM
